These results are taken from patent US20090123452A1 (TORREY PINES INSTITUTE FOR MOLECULAR STUDIES AND CATALYST …, published 2009).

This assay has as its target T1, mutant antithrombin III AT3/SLGR-KI (human, UniProt P01008 33-464).
T1 construct: RCL residues IAGRSL are replaced by SLGRKI; also called AT3 (AT3/SLGR-KI)
T1 chain: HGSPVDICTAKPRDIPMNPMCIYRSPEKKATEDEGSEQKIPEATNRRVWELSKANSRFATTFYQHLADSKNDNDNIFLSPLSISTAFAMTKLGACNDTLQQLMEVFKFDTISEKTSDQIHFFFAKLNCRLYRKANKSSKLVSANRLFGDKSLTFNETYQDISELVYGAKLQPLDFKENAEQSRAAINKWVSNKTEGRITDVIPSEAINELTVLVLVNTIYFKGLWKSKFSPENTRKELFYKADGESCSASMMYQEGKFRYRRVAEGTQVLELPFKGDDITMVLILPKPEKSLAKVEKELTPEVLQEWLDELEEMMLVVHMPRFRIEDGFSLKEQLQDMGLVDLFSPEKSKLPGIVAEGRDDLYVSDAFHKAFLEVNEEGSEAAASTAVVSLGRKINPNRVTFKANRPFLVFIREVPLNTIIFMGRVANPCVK
In words: phage display selection: complex with His-tagged AT3-SLGRKI bait captured by anti-His antibody on plate.

B1: Mutant MT-SP1 clone CPC-0023085 (phage) (enzyme)
chain: VVGGTDADEGEWPWQVSLHALGQGHFCGASLISPNWLVSAAHCYIDDRGFRYSDPTQWTAFLGLHDQSQRSAPGVQERRLKRIISHPFFNDFTFDYDIALLELEKPAEYSSMVRPISLPDASHVFPAGKAIWVTGWGHTQYGGTGALILQKGEIRVINQTTCENLLPQQITPRMMCVGFLSGGVDSCQGDSGGPLSSVEADGRIFQAGVVSWGDGCAQRNKPGVYTRLPLFRDWIKENTGVSGSSGGGSEGGGSEGGGSEGGGSGGGSGSGDFDYEKMANANKGAMTENADENALQSDAKGKLDSVATDYGAAIDGFIGDVSGLANGNGATGDFAGSNSQMAQVGDGDNSPLMNNFRQYLPSLPQSVECRPFVFSAGKPYEFSIDCDKINLFRGVFAFLLYVATFMYVFSTFANILRNKES
notes: I41F/C122S
In the case of B1, the binding result is recorded as “binds”.

B2: Mutant MT-SP1 clone CPC-0026232 (phage) (enzyme)
chain: VVGGTDADEGEWPWQVSLHALGQGHFCGASLISPNWMVSAAHCYIDDRGFRYSDPTQWTAFLGLHDQSQRSAPGVQERRLKRIISHPFFNDFTFDYDIALLELEKPAEYSSMVRPISLPDASHDFPAGKAIWVTGWGHTQYGGTGALILQKGEIRVINQTTCENLLPQQITPRMMCVGFLSGGVDSCQGDSGGPLSSVEADGRIFQAGVVSWGDGCALRNKPGVYTRLPLFRDWIKENTGVSGSSGGGSEGGGSEGGGSEGGGSGGGSGSGDFDYEKMANANKGAMTENADENALQSDAKGKLDSVATDYGAAIDGFIGDVSGLANGNGATGDFAGSNSQMAQVGDGDNSPLMNNFRQYLPSLPQSVECRPFVFSAGKPYEFSIDCDKINLFRGVFAFLLYVATFMYVFSTFANILRNKES
Regarding B2, the binding result was “binds”.

B3: Mutant MT-SP1 clone CPC-0025720 (phage) (enzyme)
chain: VVGGTDADEGEWPWQVSLHALGQGHICGASLISPNWLVSAAHCYIDDRGFRYSDPTQWTAFLGLHDQSQRSAPGVQERRLKRIISHPFFNDFTFDYDIALLELEKPAEYSSMVRPISLPDASHVFPAGKAIWVTGWGRTQYGGTGALILQKGEIRVINQTTCENLLPQRITPRMMCVGFLSGGVDSCQGDSGGPLSSVEADGRIFQAGVVSWGDGCAQRNKPGVYTRLPLFRDWIKENTGVSGSSGGGSEGGGSEGGGSEGGGSGGGSGSGDFDYEKMANANKGAMTENADENALQSDAKGKLDSVATDYGAAIDGFIGDVSGLANGNGATGDFAGSNSQMAQVGDGDNSPLMNNFRQYLPSLPQSVECRPFVFSAGKPYEFSIDCDKINLFRGVFAFLLYVATFMYVFSTFANILRNKES
notes: C122S/H143R/Q175R
In the case of B3, the binding result is listed as “binds”.

B4: Mutant MT-SP1 clone CPC-0027399 (phage) (enzyme)
chain: VVGGTDADEGEWPWQVSLHALGQGHICGASLISPNWLVSAAHCYIDDRGFRYSDPTQWTAFLGLHDQSQRSAPGVQERRLKRIISHPFFNDFTLDYDIALLELEKPAEYSSMVRPISLPDASHVFPAGKAIWVTGWGHTQYGGTGALILQKGEIRVINQTTCENLLPQQITPRMMCVGFLSGGVDSCQGDSGGPLSSVEADGRIFQAGVVSWGDGCAQRNKPGVYTRLPLFRDWIKENTGVSGSSGGGSEGGGSEGGGSEGGGSGGGSGSGDFDYEKMANANKGAMTENADENALQSDAKGKLDSVATDYGAAIDGFIGDVSGLANGNGATGDFAGSNSQMAQVGDGDNSPLMNNFRQYLPSLPQSVECRPFVFSAGKPYEFSIDCDKINLFRGVFAFLLYVATFMYVFSTFANILRNKES
notes: F99L/C122S
As to B4, the binding result was “binds”.

B5: Mutant MT-SP1 clone CPC-0025582 (phage) (enzyme)
chain: VVGGTDADEGEWPWQVSLHALGQGHFCGASLISPNWLVSAAHCYIDDRGFRYSDPTQWTAFLGLHDQSQRSAPGVQERRLKRIISHPFFNDFTFDYDIALLELEKPAEYSSMVRPISLPDASHVFPAGKAIWVTGWGHTQYGGTGALILQKGEIRVINQTTCENFLPQQITPRMMCVGFLSGGVDSCQGDSGGPLSSVEADGRIFQAGVVSWGDGCAQRNKPGVYTRLPLFRDWIKENTGGSGSSGGGSEGGGSEGGGSEGGGSGGGSGSGDFDYEKMANANKGAMTENADENALQSDAKGKLDSVATDYGAAIDGFIGDVSGLANGNGATGDFAGSNSQMAQVGDGDNSPLMNNFRQYLPSLPQSVECRPFVFSAGKPYEFSIDCDKINLFRGVFAFLLYVATFMYVFSTFANILRNKES
notes: I41F/C122S/L171F/V244G
Regarding B5, the binding result was “binds”.

B6: Mutant MT-SP1 clone CPC-0019595 (phage) (enzyme)
chain: VVGGTDADEGEWPWQVSLHALGQGHICGASLISPNWLVSAAHCYIDDRGFRYSDPTQWTAFLGLHDQSQRSAPGVQERRLKRIISHPFFNDFTFDYDIALLELEKPAEYSSMVRPISLPDASHVFPAGKATWVTGWGHTQYGGTGALILQKGEIRVIDQATCENLLPQQITPRMMCVGLLSGGVDSCQGDSGGPLSSVEADGRIFQAGVVSWGVGCAQRNKPGVYTRLPLFRDWIKENTGVSGSSGGGSEGGGSEGGGSEGGGSGGGSGSGDFDYEKMANANKGAMTENADENALQSDAKGKLDSVATDYGAAIDGFIGDVSGLANGNGATGDFAGSNSQMAQVGDGDNSPLMNNFRQYLPSLPQSVECRPFVFSAGKPYEFSIDCDKINLFRGVFAFLLYVATFMYVFSTFANILRNKES
notes: C122S/I136T/N164D/T166A/F184(A)L/D217V (chymotrypsin numbering); the STII leader is not counted
In the case of B6, the binding result is on record as “binds”.

B7: Mutant MT-SP1 clone CPC-0027797 (phage) (enzyme)
chain: VVGGTDADEGEWPWQVSLHALGQGHICGASLISPNWLVSAAHCYIDDRGFRYSDPTQWTAFLGLRDQSQRSAPGVQERRLKRIISHPFFNDFTFDYDIALLELEKPAEYSSMVRPISLPDASHVFSAGKAIWVTGWGHTQYGGTGALILQKGEIRVINQTTCENLLPQQITPRMMCVGFLSGGVDSCQGDSGGPLSSVEADGRIFQAGVVSWGVGCAQRNKPGVYTRLPLFRDWIKENTGVSGSSGGGSEGGGSEGGGSEGGGSGGGSGSGDFDYEKMANANKGAMTENADENALQSDAKGKLDSVATDYGAAIDGFIGDVSGLANGNGATGDFAGSNSQMAQVGDGDNSPLMNNFRQYLPSLPQSVECRPFVFSAGKPYEFSIDCDKINLFRGVFAFLLYVATFMYVFSTFANILRNKES
notes: H71R/C122S/P131S/D217V
Consider B7, for which the binding result is on record as “binds”.

B8: Mutant MT-SP1 clone CPC-0025876 (phage) (enzyme)
chain: VVGGTDADEGEWPWQVSLHALGQGHFCGASLISPNWLVSAAHCYIDDRGFRYSDPTQWTAFLGLHDQSQRSAPGVQERRLKRIISHPFFNDFTFDYDIALLELEKPAEYSSMVRPISLPDASHVFPAGKAIWVTGWGHTQYGGTGALILQKGEIRVINQTTCENFLPQQITPRMMCVGFLSGGVDSCQGDSGGPLSSVEADGRIFQAGVVSWGDGCAQRNKPGVYTRLPLFRDWIKENTGVSGSSGGGSEGGGSEGGGSEGGGSGGGSGSGDFDYEKMANANKGAMTENADENALQSDAKGKLDSVATDYGAAIDGFIGDVSGLANGNGATGDFAGSNSQMAQVGDGDNSPLMNNFRQYLPSLPQSVECRPFVFSAGKPYEFSIDCDKINLFRGVFAFLLYVATFMYVFSTFANILRNKES
notes: I41F/C122S/L171F
As for B8, the binding result is listed as “binds”.

B9: Mutant MT-SP1 clone CPC-0027706 (phage) (enzyme)
chain: VVGGTDADEGEWPWQVSLHALGQGHICGASLISPNWLVSAAHCYIDDRGFRYSDPTQWTAFLGLHDQSQRSAPGVQERRLKRIISHPFFNDYTFDYDIALLELEKPAEYSSMVRPISLPDASHVFPAGKAVWVTGWGHTQYGGTGALILQKGEIRVINQTTCENLLPQQITPRMMCVGFLSGGVDSCHGDSGGPLSIVEADGRIFQAGVVSWGDGCAQRNKPGVYTRLPLFRDWIKENTGVSGSSGGGSEGGGSEGGGSEGGGSGGGSGSGDFDYEKMANANKGAMTENADENALQSDAKGKLDSVATDYGAAIDGFIGDVSGLANGNGATGDFAGSNSQMAQVGDGDNSPLMNNFRQYLPSLPQSVECRPFVFSAGKPYEFSIDCDKINLFRGVFAFLLYVATFMYVFSTFANILRNKES
notes: F97Y/C122S/I136V/Q192H/S201I
For the molecule B9, the binding result is listed as “binds”.

B10: Mutant MT-SP1 clone CPC-0026100 (phage) (enzyme)
chain: VVGGTDADEGEWPWQVSLHALGQGHFCGASLISPNWLVSAAHCYIDDRGFRYSDPTQWTAFLGLHDQSQRSAPGVQERRLKRIISHPFFNDFTFDYDIALLELEKPAEYSSMVRPISLPDASHVFPAGKAIWVTGWGHTQYGGTGALVLQKGEIRVINQTTCENLLPQQITPRMMCVGFLSGGVDSCQGDSGGPLSSVEADGRIFQAGVVSWGDGCAQRNKPGVYTRLPLFRDWIKENTGGSGSSGGGSEGGGSEGGGSEGGGSGGGSGSGDFDYEKMANANKGAMTENADENALQSDAKGKLDSVATDYGAAIDGFIGDVSGLANGNGATGDFAGSNSQMAQVGDGDNSPLMNNFRQYLPSLPQSVECRPFVFSAGKPYEFSIDCDKINLFRGVFAFLLYVATFMYVFSTFANILRNKES
notes: I41F/C122S/I154V/V244G
In the case of B10, the binding result is “binds”.

B11: Mutant MT-SP1 clone CPC-0025366 (phage) (enzyme)
chain: VVGGTDAEEGEWPWQVSLHALGQGHFCGASLISPNWLVSAAHCYIDDRGFRYSDPTQWTAFLGLHDQSQRSAPGVQERRLKRIISHPFFNDFPFDYDIALLELEKPAEYSSMVRPISLPDASHVFPAGKAIWVTGWGHIQYGGTGALILQKGEIRVINQTTCENLLPQQITPRMMCVGFLSGGVDSCQGDSGGPLSSVEADGRIFQAGVVSWGDGCAQRNKPGVYTRLPLFRDWIKENTGVSGSSGGGSEGGGSEGGGSEGGGSGGGSGSGDFDYEKMANANKGAMTENADENALQSDAKGKLDSVATDYGAAIDGFIGDVSGLANGNGATGDFAGSNSQMAQVGDGDNSPLMNNFRQYLPSLPQSVECRPFVFSAGKPYEFSIDCDKINLFRGVFAFLLYVATFMYVFSTFANILRNKES
notes: D23E/I41F/T98P/C122S/T144I
With B11, the binding result is “binds”.

B12: Mutant MT-SP1 clone CPC-0024153 (phage) (enzyme)
chain: VVGGTDADEGEWPWQVSLHALGQGHFCGASLISPNWLVSAAHCYIDDRGFRYSDPTQWTAFLGLHDQSQRSAPGVQERRLKRIISHPFFNDFTFDYDIALLELEKPAEYSSMVRPISLPDTSHVFPAGKAIWVTGWGHTQYGGTGALILQKGEIRVINQTTCENLLPQQITPRMMCVGFLSGGVDSCQGDSGGPLSSVEADGRIFQAGVVSWGDGCAQRNKPGVYTRLPLFRDWIKENTGGSGSSGGGSEGGGSEGGGSEGGGSGGGSGSGDFDYEKMANANKGAMTENADENALQSDAKGKLDSVATDYGAAIDGFIGDVSGLANGNGATGDFAGSNSQMAQVGDGDNSPLMNNFRQYLPSLPQSVECRPFVFSAGKPYEFSIDCDKINLFRGVFAFLLYVATFMYVFSTFANILRNKES
notes: I41F/C122S/A126T/V244G
On to B12, for which the binding result is on record as “binds”.
